B1: RHOBTB2 (parent)
chain: HHHHGRDFLLRAASFDVCESVDEA
B2: PPEF2 (parent)
chain: FIPSSHNDRDFLTRIFTEDRFAQD

Variants of: B1
Assay: protein stability index of a GFP-peptide fusion (GPS, HEK-293T) (PSI 1-6); higher = more stable
Conditions: c terminus: a fixed tail appended
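Further: lentivirally expressed fusions sorted by FACS into six bins by GFP to DsRed ratio, PSI derived from sequencing read proportions per bin multiplied by bin number.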

Protein stability index: each site, then its substitutions
V17: P 4.7, I 3.37, L 3.2, G 3.99, S 4.11, H 3.55, R 3.52, Q 4.24, K 3.94, Y 4.16, T 3.53, M 3.68, W 3, N 4
C18: T 3.7, N 4.21, K 3.94, D 4.75, E 4.77, I 3.57, Q 4.03, M 3.37, Y 2.82, S 4.06, W 2.48, P 4.42, A 3.96, L 2.9, R 3.65, F 3.54, V 3.95, H 3.4, G 4.24
E19: M 2.44, R 2.73, W 2.2, H 2.9, L 1.56, V 2.49, S 2.71, G 3.07, I 2.17, F 2.22, P 3.06, K 3, T 2.76, A 2.9, D 3.72, Y 1.74, Q 3.34, C 2.42, N 3.54
A24: I 3.17, N 3.59, F 2.65, K 3.85, P 3.56, T 3.95, R 3.75, V 3.27, H 3.92, E 4.15, G 3.88, W 2.53, D 4.26, L 3.75, Y 3.29, C 3.04, M 3.61, S 3.82, Q 3.86
V21: Q 4.2, E 4.51, L 3.62, G 4.17, R 3.68, C 3.25, S 3.62, N 4.18, M 3.92, T 3.56, I 3.96, W 3.61, P 3.61, A 3.8, K 4.5, F 3.47, Y 3.66, H 3.08, D 4.84
E23: I 2.92, F 2.37, W 2.52, G 3.21, V 2.45, M 3.34, Q 3.66, C 2.67, N 3.26, P 3.65, R 3.37, A 2.94, S 3.25, D 3.39, H 2.93, K 2.57, Y 2.83, T 3.13, L 2.02
S20: V 3.03, R 3.34, N 3.98, E 4.46, T 4, C 2.94, I 2.73, K 4.12, D 4.1, W 2.39, P 3.76, H 2.81, L 3.16, G 4.1, A 3.08, F 2.88, Y 3.21, M 2.71, Q 3.83
D22: E 3.77, S 3.44, Y 2.44, R 3.15, W 1.82, M 3.04, L 2.33, N 3.14, H 2.99, K 3.33, Q 3.09, V 2.91, F 2.21, C 2.56, T 3, G 3, I 2.5, A 3, P 2.85

Variants of: B2
Assay: as above
Conditions: c terminus: a fixed tail appended

Protein stability index: each site, then its substitutions
N7: I 2.11, P 1.92, A 1.65, H 3.59, D 1.56, E 2.39, W 1.6, Q 2.46, C 2.17, R 2.33, G 2.01, F 1.89, T 2.17, L 1.97, S 1.73, V 1.8, K 2.99, M 2.22, Y 2.95
D10: M 1.87

Source: the supplement of paper PMC10567573
